Experimental findings from publication PMC11804868 (ACS catalysis, 2024) are described below.

The series deals with the molecule itself. Briefly: SEC. For orientation: In gel filtration, larger molecules generally elute earlier.

B1: PikAIV TE wild type (thioesterase domain of the pikromycin polyketide synthase PikAIV) (domain or fragment, Streptomyces venezuelae ATCC 15439, UniProt Q9ZGI2 1057-1346, looked up)
chain: AGMFRALFRQAVEDDRYGEFLDVLAEASAFRPQFASPEACSERLDPVLLAGGPTDRAEGRAVLVGCTGTAANGGPHEFLRLSTSFQEERDFLAVPLPGYGTGTGTGTALLPADLDTALDAQARAILRAAGDAPVVLLGHSGGALLAHELAFRLERAHGAPPAGIVLVDPYPPGHQEPIEVWSRQLGEGLFAGELEPMSDARLLAMGRYARFLAGPRPGRSSAPVLLVRASEPLGDWQEERGDWRAHWDLPHTVADVPGDHFTMMRDHAPAVAEAVLSWLDAIEGIEGAGK
For orientation: stoichiometry N means the number of molecules, sites or subunits per partner or assembly. Turning to B1, the “stoichiometry N” value stood at 2.
